Target: LOXL3 (UniProt P58215)
Test: Co-IP of LOXL3 with LOXL3
Conditions: reference: wild type; sites S704

Chain of UniProt P58215 (P58215 whole entry S704A): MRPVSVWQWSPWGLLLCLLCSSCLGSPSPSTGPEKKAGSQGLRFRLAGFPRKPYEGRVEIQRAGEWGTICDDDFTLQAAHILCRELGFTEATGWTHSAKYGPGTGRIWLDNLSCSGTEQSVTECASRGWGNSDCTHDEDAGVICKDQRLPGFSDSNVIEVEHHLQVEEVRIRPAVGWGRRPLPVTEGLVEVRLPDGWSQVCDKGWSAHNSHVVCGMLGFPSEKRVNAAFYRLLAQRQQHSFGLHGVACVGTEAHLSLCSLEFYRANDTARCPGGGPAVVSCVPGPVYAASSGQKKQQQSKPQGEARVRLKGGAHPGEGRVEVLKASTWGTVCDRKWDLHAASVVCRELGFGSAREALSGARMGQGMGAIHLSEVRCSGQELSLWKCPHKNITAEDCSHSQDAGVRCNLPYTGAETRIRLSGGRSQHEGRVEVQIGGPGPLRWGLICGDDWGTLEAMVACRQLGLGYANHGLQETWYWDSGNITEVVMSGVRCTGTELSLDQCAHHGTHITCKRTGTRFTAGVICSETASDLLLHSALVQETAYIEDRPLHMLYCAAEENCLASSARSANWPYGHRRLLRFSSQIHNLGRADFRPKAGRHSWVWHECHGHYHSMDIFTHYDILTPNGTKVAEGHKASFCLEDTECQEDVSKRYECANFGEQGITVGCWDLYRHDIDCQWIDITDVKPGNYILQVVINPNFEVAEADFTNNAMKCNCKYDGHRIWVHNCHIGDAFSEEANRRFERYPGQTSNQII

binding against the reference: weaker
Substance: LOXL3 (from UniProt P58215) S704A
